Assay results: article PMC12808100 (Nature Communications, 2025)
*: point of attachment. carboxyfluorescein = carboxyfluorescein on the N-terminus (no linker); Biotin = O=C1N[C@H]2[C@H](CS[C@H]2CCCCC(=O)*)N1; TTDS = Trioxatridecan-succinamic acid linker

Tests used:
[1] = target: T1, His6-AviTag-MBP-TEV-POLE2 (human, UniProt P56282 1-527, biotin on the AviTag (BirA co-expressed, biotin in the medium)); experiment: fluorescence polarisation; direct; dilution series of MBP-POLE2 added to 50 nM fluoDONSON peptide; 20 mM Hepes pH 7.5, 150 mM NaCl, 0.5 mM TCEP, 0.01% Tween 20; settings: both partners purified
T1 construct: POLE2, residues 1-527; a TEV site lies between MBP and POLE2; also called His6-avi-MBP-tagged POLE2; avi-His6-MBP-POLE2; source: E. coli BL21(DE3), co-expressed with BirA, purified (HisTrap, MBPtrap, Q HP); not shown: His6, N-terminal, kept; AviTag, N-terminal, kept; MBP, N-terminal, kept
T1 sequence (P56282 whole entry, the tested form may be a part): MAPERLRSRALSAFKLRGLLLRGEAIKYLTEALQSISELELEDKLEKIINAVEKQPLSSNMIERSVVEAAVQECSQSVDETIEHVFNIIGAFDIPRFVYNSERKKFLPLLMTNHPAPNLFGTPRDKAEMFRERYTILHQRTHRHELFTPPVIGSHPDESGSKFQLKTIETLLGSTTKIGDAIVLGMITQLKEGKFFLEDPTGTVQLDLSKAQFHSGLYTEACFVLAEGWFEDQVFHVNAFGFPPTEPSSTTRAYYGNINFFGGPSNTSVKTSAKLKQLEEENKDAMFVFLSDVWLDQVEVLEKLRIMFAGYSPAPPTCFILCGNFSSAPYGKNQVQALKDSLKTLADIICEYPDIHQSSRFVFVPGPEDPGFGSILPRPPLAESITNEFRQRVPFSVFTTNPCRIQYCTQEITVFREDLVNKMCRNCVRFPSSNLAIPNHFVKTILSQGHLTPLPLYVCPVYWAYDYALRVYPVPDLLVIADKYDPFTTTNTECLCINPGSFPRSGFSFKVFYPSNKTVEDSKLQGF

[2] = target: T2, HA-POLE2 (human, UniProt P56282 1-527); experiment: native holdup (nHU) titration with dot blot; DONSON_71-88-saturated streptavidin resin mixed with control resin at various proportions; extracts of HEK293T cells expressing HA-tagged POLE2 variants; 4 °C, 2 h; depletion quantified with an antibody against the HA tag; apparent; settings: one partner purified
T2 construct: POLE2, residues 1-527; also called HA-POLE2 wild type; source: HEK293T, transfected, in cell extract; not shown: HA, N-terminal, kept
T2 sequence (P56282 whole entry, the tested form may be a part): as above

[3] = target: T1, His6-AviTag-MBP-TEV-POLE2; experiment: fluorescence polarisation; competitive; dilution series of the non-fluorescent DONSON peptide added to 50 nM fluoDONSON and 3.85 μM POLE2 protein; same buffer as the direct experiment; settings: both partners purified
[4] = target: T1, His6-AviTag-MBP-TEV-POLE2; experiment: native holdup (nHU) titration with dot blot; purified His6-avi-MBP-tagged POLE2 as bait on resin; extracts of HEK293T cells transfected with HA-tagged full length proteins; 4 °C, 2 h; anti-HA dot blot; apparent; settings: one partner purified

B1: fluoDONSON peptide (residues 71-88) (peptide)
peptide: carboxyfluorescein-GPAAARRNPFARLDNRPR-NH2
notes: DONSON, residues 71-88; also called fluorescein-labeled DONSON_71-88 peptide; fluorescent NPF motif peptide; source: synthetic peptide, HPLC purified
With B1 the Kd [1] was 16 µM.

B2: NPF motif peptide of DONSON (residues 71-88) (peptide)
peptide: {Biotin-TTDS}-GPAAARRNPFARLDNRPR-NH2
notes: Protein downstream neighbor of Son (DONSON), residues 71-88; also called DONSON_71-88; DONSON NPF motif; source: synthetic peptide (ABI 443 A synthesizer, Fmoc), HPLC purified
In the case of B2, the Kd [2] is reported as 280 nM and the Kd [3] is reported as 13 µM.

B3: HA-ERCC6L, full length, NPF motif mutated to KAF (natural protein, human, UniProt Q2NKX8 1-1250, looked up)
chain: MEASRRFPEAEALSPEQAAHYLRYVKEAKEATKNGDLEEAFKLFNLAKDIFPNEKVLSRIQKIQEALEELAEQGDDEFTDVCNSGLLLYRELHNQLFEHQKEGIAFLYSLYRDGRKGGILADDMGLGKTVQIIAFLSGMFDASLVNHVLLIMPTNLINTWVKEFIKWTPGMRVKTFHGPSKDERTRNLNRIQQRNGVIITTYQMLINNWQQLSSFRGQEFVWDYVILDEAHKIKTSSTKSAICARAIPASNRLLLTGTPIQNNLQELWSLFDFACQGSLLGTLKTFKMEYENPITRAREKDATPGEKALGFKISENLMAIIKPYFLRRTKEDVQKKKSSNPEARLNEKNPDVDAICEMPSLSRKNDLIIWIRLVPLQEEIYRKFVSLDHIKELLMETRSPLAELGVLKKLCDHPRLLSARACCLLNLGTFSAQDGNEGEDSPDVDHIDQVTDDTLMEESGKMIFLMDLLKRLRDEGHQTLVFSQSRQILNIIERLLKNRHFKTLRIDGTVTHLLEREKRINLFQQNKDYSVFLLTTQVGGVGLTLTAATRVVIFDPSWNPATDAQAVDRVYRIGQKENVVVYRLITCGTVEEKIYRRQVFKDSLIRQTTGEKKNPFRYFSKQELRELFTIEDLQNSVTQLQLQSLHAAQRKSDIKLDEHIAYLQSLGIAGISDHDLMYTCDLSVKEELDVVEESHYIQQRVQKAQFLVEFESQNKEFLMEQQRTRNEGAWLREPVFPSSTKKKCPKLNKPQPQPSPLLSTHHTQEEDISSKMASVVIDDLPKEGEKQDLSSIKVNVTTLQDGKGTGSADSIATLPKGFGSVEELCTNSSLGMEKSFATKNEAVQKETLQEGPKQEALQEDPLESFNYVLSKSTKADIGPNLDQLKDDEILRHCNPWPIISITNESQNAESNVSIIEIADDLSASHSALQDAQASEAKLEEEPSASSPQYACDFNLFLEDSADNRQNFSSQSLEHVEKENSLCGSAPNSRAGFVHSKTCLSWEFSEKDDEPEEVVVKAKIRSKARRIVSDGEDEDDSFKDTSSIKAFNTSLFQFSSVKQFDASTPKNDISPPGRFFSSQIPSSVNKSMNSRRSLASRRSLINMVLDHVEDMEERLDDSSEAKGPEDYPEEGVEESSGEASKYTEEDPSGETLSSENKSSWLMTSKPSALAQETSLGAPEPLSGEQLVGSPQDKAAEATNDYETLVKRGKELKECGKIQEALNCLVKALDIKSADPEVMLLTLSLYKQLNNN
notes: ERCC6L, residues 1-1250; also called mutated version of ERCC6L; source: HEK293T, transfected, in cell extract; not shown: HA, N-terminal, kept
With B3 the “fold weaker affinity than the wild type” value [4] was 10 fold.

B4: HA-TTF2, full length, N-terminal NPF motif mutated to KAF (natural protein, human, UniProt Q9UNY4 1-1162, looked up)
chain: MEEVRCPEHGTFCFLKTGVRDGPNKGKSFYVCRADTCSFVRATDIPVSHCLLHEDFVVELQGLLLPQDKKEYRLFFRCIRSKAEGKRWCGSIPWQDPDSKEHSVSNKSQHASETFHHSSNWLRKAFKVLDKNQEPALWKQLIKGEGEEKKADKKQREKGDQLFDQKKEQKPEMMEKDLSSGLVPKKKQSVVQEKKQEEGAEIQCEAETGGTHKRDFSEIKSQQCQGNELTRPSASSQEKSSGKSQDVQRESEPLREKVTQLLPQNVHSHNSISKPQKGGPLNKEYTNWEAKETKAKDGPSIQATQKSLPQGHFQERPETHSVPAPGGPAAQAAPAAPGLSLGEGREAATSSDDEEEDDVVFVSSKPGSPLLFDSTLDLETKENLQFPDRSVQRKVSPASGVSKKVEPSDPVARRVYLTTQLKQKKSTLASVNIQALPDKGQKLIKQIQELEEVLSGLTLSPEQGTNEKSNSQVPQQSHFTKTTTGPPHLVPPQPLPRRGTQPVGSLELKSACQVTAGGSSQCYRGHTNQDHVHAVWKITSEAIGQLHRSLESCPGETVVAEDPAGLKVPLLLHQKQALAWLLWRESQKPQGGILADDMGLGKTLTMIALILTQKNQEKKEEKEKSTALTWLSKDDSCDFTSHGTLIICPASLIHHWKNEVEKRVNSNKLRVYLYHGPNRDSRARVLSTYDIVITTYSLVAKEIPTNKQEAEIPGANLNVEGTSTPLLRIAWARIILDEAHNVKNPRVQTSIAVCKLQACARWAVTGTPIQNNLLDMYSLLKFLRCSPFDEFNLWRSQVDNGSKKGGERLSILTKSLLLRRTKDQLDSTGRPLVILPQRKFQLHHLKLSEDEETVYNVFFARSRSALQSYLKRHESRGNQSGRSPNNPFSRVALEFGSEEPRHSEAADSPRSSTVHILSQLLRLRQCCCHLSLLKSALDPMELKGEGLVLSLEEQLSALTLSELRDSEPSSTVSLNGTFFKMELFEGMRESTKISSLLAELEAIQRNSASQKSVIVSQWTNMLKVVALHLKKHGLTYATIDGSVNPKQRMDLVEAFNHSRGPQVMLISLLAGGVGLNLTGGNHLFLLDMHWNPSLEDQACDRIYRVGQQKDVVIHRFVCEGTVEEKILQLQEKKKDLAKQVLSGSGESVTKLTLADLRVLFGI
notes: TTF2, residues 1-1162; only the N-terminal NPF motif mutated; also called TTF2 mutant; source: HEK293T, transfected, in cell extract; not shown: HA, N-terminal, kept
In the case of B4, the “fold weaker affinity than the wild type” value [4] is reported as ~4 fold.
